# From US20210388110A1 (published 2021)
# Target: T1, soluble human GPC3 (human, UniProt P51654 25-563, limits assumed)
# T1 construct: also called glypican 3
# Assay: SPR (Biacore), single-arm antibody, soluble human GPC3
# T1 sequence (P51654 other isoform, or with tags, fused parts or gaps limits assumed, form in doubt): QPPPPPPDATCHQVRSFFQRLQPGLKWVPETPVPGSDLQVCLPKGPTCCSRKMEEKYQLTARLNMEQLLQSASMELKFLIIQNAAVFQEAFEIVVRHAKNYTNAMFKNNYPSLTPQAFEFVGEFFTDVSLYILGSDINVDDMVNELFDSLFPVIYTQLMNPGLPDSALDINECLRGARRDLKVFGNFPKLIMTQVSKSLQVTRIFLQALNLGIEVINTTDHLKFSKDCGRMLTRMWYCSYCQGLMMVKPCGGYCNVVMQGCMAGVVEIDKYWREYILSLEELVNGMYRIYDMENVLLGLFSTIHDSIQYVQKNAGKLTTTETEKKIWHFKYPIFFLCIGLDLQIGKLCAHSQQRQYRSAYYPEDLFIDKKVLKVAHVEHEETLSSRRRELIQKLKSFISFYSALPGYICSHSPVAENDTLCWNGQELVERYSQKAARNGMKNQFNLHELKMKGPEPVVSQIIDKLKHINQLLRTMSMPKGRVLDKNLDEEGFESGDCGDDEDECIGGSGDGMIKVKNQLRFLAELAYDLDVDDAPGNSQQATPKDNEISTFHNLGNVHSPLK
row,Binder,Kd
1,"GCH034-G1dh/none-Hi-Kn010G3/L0000-k0 (antibody, human IgG1, kappa, single-arm antibody) heavy: not shown EPKSSDKTHTCPPCPAPELLGGPSVFLFPPKPKDTLMISRTPEVTCVVVDVSHEDPEVKFNWYVDGVEVHNAKTKPREEQYNSTYRVVSVLTVLHQDWLNGKEYKCKVSNKALPAPIEKTISKAKGQPREPQVCTLPPSRDELTKNQVSLWCLVKGFYPSDIAVEWESNGQPENNYKTTPPVLDSDGSFFLYSKLTVDKSRWQQGNVFSCSVMHEALHNRYTQKSLSLSP light: DIVMTQSPLSLPVTPGEPASISCRSSQSLVHSNRNTYLHWYQQKPGQAPRLLIYKVSNRFSGVPDRFSGSGSGTDFTLKISRVEAEDVGVYYCGQGTQVPYTFGQGTKLEIKRTVAAPSVFIFPPSDEQLKSGTASVVCLLNNFYPREAKVQWKVDNALQSGNSQESVTEQDSKDSTYSLSSTLTLSKADYEKHKVYACEVTHQGLSSPVTKSFNRGEC",5.09 nM
2,"GCH054-G1dh/none-Hi-Kn010G3/L0000-k0 (antibody, human IgG1, kappa, single-arm antibody) heavy: not shown EPKSSDKTHTCPPCPAPELLGGPSVFLFPPKPKDTLMISRTPEVTCVVVDVSHEDPEVKFNWYVDGVEVHNAKTKPREEQYNSTYRVVSVLTVLHQDWLNGKEYKCKVSNKALPAPIEKTISKAKGQPREPQVCTLPPSRDELTKNQVSLWCLVKGFYPSDIAVEWESNGQPENNYKTTPPVLDSDGSFFLYSKLTVDKSRWQQGNVFSCSVMHEALHNRYTQKSLSLSP light: DIVMTQSPLSLPVTPGEPASISCRSSQSLVHSNRNTYLHWYQQKPGQAPRLLIYKVSNRFSGVPDRFSGSGSGTDFTLKISRVEAEDVGVYYCGQGTQVPYTFGQGTKLEIKRTVAAPSVFIFPPSDEQLKSGTASVVCLLNNFYPREAKVQWKVDNALQSGNSQESVTEQDSKDSTYSLSSTLTLSKADYEKHKVYACEVTHQGLSSPVTKSFNRGEC",5.3 nM
3,"GCH055-G1dh/none-Hi-Kn010G3/L0000-k0 (antibody, human IgG1, kappa, single-arm antibody) heavy: not shown EPKSSDKTHTCPPCPAPELLGGPSVFLFPPKPKDTLMISRTPEVTCVVVDVSHEDPEVKFNWYVDGVEVHNAKTKPREEQYNSTYRVVSVLTVLHQDWLNGKEYKCKVSNKALPAPIEKTISKAKGQPREPQVCTLPPSRDELTKNQVSLWCLVKGFYPSDIAVEWESNGQPENNYKTTPPVLDSDGSFFLYSKLTVDKSRWQQGNVFSCSVMHEALHNRYTQKSLSLSP light: DIVMTQSPLSLPVTPGEPASISCRSSQSLVHSNRNTYLHWYQQKPGQAPRLLIYKVSNRFSGVPDRFSGSGSGTDFTLKISRVEAEDVGVYYCGQGTQVPYTFGQGTKLEIKRTVAAPSVFIFPPSDEQLKSGTASVVCLLNNFYPREAKVQWKVDNALQSGNSQESVTEQDSKDSTYSLSSTLTLSKADYEKHKVYACEVTHQGLSSPVTKSFNRGEC",5.6 nM
4,"GCH056-G1dh/none-Hi-Kn010G3/L0000-k0 (antibody, human IgG1, kappa, single-arm antibody) heavy: not shown EPKSSDKTHTCPPCPAPELLGGPSVFLFPPKPKDTLMISRTPEVTCVVVDVSHEDPEVKFNWYVDGVEVHNAKTKPREEQYNSTYRVVSVLTVLHQDWLNGKEYKCKVSNKALPAPIEKTISKAKGQPREPQVCTLPPSRDELTKNQVSLWCLVKGFYPSDIAVEWESNGQPENNYKTTPPVLDSDGSFFLYSKLTVDKSRWQQGNVFSCSVMHEALHNRYTQKSLSLSP light: DIVMTQSPLSLPVTPGEPASISCRSSQSLVHSNRNTYLHWYQQKPGQAPRLLIYKVSNRFSGVPDRFSGSGSGTDFTLKISRVEAEDVGVYYCGQGTQVPYTFGQGTKLEIKRTVAAPSVFIFPPSDEQLKSGTASVVCLLNNFYPREAKVQWKVDNALQSGNSQESVTEQDSKDSTYSLSSTLTLSKADYEKHKVYACEVTHQGLSSPVTKSFNRGEC",5.03 nM
5,"GCH056-G1dh/none-Hi-Kn010G3/L0011-k0 (antibody, human IgG1, kappa, single-arm antibody) heavy: not shown EPKSSDKTHTCPPCPAPELLGGPSVFLFPPKPKDTLMISRTPEVTCVVVDVSHEDPEVKFNWYVDGVEVHNAKTKPREEQYNSTYRVVSVLTVLHQDWLNGKEYKCKVSNKALPAPIEKTISKAKGQPREPQVCTLPPSRDELTKNQVSLWCLVKGFYPSDIAVEWESNGQPENNYKTTPPVLDSDGSFFLYSKLTVDKSRWQQGNVFSCSVMHEALHNRYTQKSLSLSP light: DIVMTQSPLSLPVTPGEPASISCRSSQPLVHSNRNTYLHWYQQKPGQAPRLLIYKVSNRFSGVPDRFSGSGSGTDFTLKISRVEAEDVGVYYCGQGTQVPYTFGQGTKLEIKRTVAAPSVFIFPPSDEQLKSGTASVVCLLNNFYPREAKVQWKVDNALQSGNSQESVTEQDSKDSTYSLSSTLTLSKADYEKHKVYACEVTHQGLSSPVTKSFNRGEC",4.31 nM
6,"H0610-G1dh/none-Hi-Kn010G3/L0043-k0 (antibody, human IgG1, kappa, single-arm antibody) heavy: not shown EPKSSDKTHTCPPCPAPELLGGPSVFLFPPKPKDTLMISRTPEVTCVVVDVSHEDPEVKFNWYVDGVEVHNAKTKPREEQYNSTYRVVSVLTVLHQDWLNGKEYKCKVSNKALPAPIEKTISKAKGQPREPQVCTLPPSRDELTKNQVSLWCLVKGFYPSDIAVEWESNGQPENNYKTTPPVLDSDGSFFLYSKLTVDKSRWQQGNVFSCSVMHEALHNRYTQKSLSLSP light: DIVMTQSPLSLPVTPGEPASISCRSSQSLVHNNRNTYLHWYQQKPGQAPRLLIYKVSNRFSGVPDRFSGSGSGTDFTLKISRVEAEDVGVYYCGQGTQVPYTFGQGTKLEIKRTVAAPSVFIFPPSDEQLKSGTASVVCLLNNFYPREAKVQWKVDNALQSGNSQESVTEQDSKDSTYSLSSTLTLSKADYEKHKVYACEVTHQGLSSPVTKSFNRGEC",5.14 nM

# Next, values leading:
row,Kd,Binder
1,5.61 nM,"GCH057-G1dh/none-Hi-Kn010G3/L0000-k0 (antibody, human IgG1, kappa, single-arm antibody) heavy: not shown EPKSSDKTHTCPPCPAPELLGGPSVFLFPPKPKDTLMISRTPEVTCVVVDVSHEDPEVKFNWYVDGVEVHNAKTKPREEQYNSTYRVVSVLTVLHQDWLNGKEYKCKVSNKALPAPIEKTISKAKGQPREPQVCTLPPSRDELTKNQVSLWCLVKGFYPSDIAVEWESNGQPENNYKTTPPVLDSDGSFFLYSKLTVDKSRWQQGNVFSCSVMHEALHNRYTQKSLSLSP light: DIVMTQSPLSLPVTPGEPASISCRSSQSLVHSNRNTYLHWYQQKPGQAPRLLIYKVSNRFSGVPDRFSGSGSGTDFTLKISRVEAEDVGVYYCGQGTQVPYTFGQGTKLEIKRTVAAPSVFIFPPSDEQLKSGTASVVCLLNNFYPREAKVQWKVDNALQSGNSQESVTEQDSKDSTYSLSSTLTLSKADYEKHKVYACEVTHQGLSSPVTKSFNRGEC"
2,5.7 nM,"GCH059-G1dh/none-Hi-Kn010G3/L0000-k0 (antibody, human IgG1, kappa, single-arm antibody) heavy: not shown EPKSSDKTHTCPPCPAPELLGGPSVFLFPPKPKDTLMISRTPEVTCVVVDVSHEDPEVKFNWYVDGVEVHNAKTKPREEQYNSTYRVVSVLTVLHQDWLNGKEYKCKVSNKALPAPIEKTISKAKGQPREPQVCTLPPSRDELTKNQVSLWCLVKGFYPSDIAVEWESNGQPENNYKTTPPVLDSDGSFFLYSKLTVDKSRWQQGNVFSCSVMHEALHNRYTQKSLSLSP light: DIVMTQSPLSLPVTPGEPASISCRSSQSLVHSNRNTYLHWYQQKPGQAPRLLIYKVSNRFSGVPDRFSGSGSGTDFTLKISRVEAEDVGVYYCGQGTQVPYTFGQGTKLEIKRTVAAPSVFIFPPSDEQLKSGTASVVCLLNNFYPREAKVQWKVDNALQSGNSQESVTEQDSKDSTYSLSSTLTLSKADYEKHKVYACEVTHQGLSSPVTKSFNRGEC"
3,5.13 nM,"GCH061-G1dh/none-Hi-Kn010G3/L0000-k0 (antibody, human IgG1, kappa, single-arm antibody) heavy: not shown EPKSSDKTHTCPPCPAPELLGGPSVFLFPPKPKDTLMISRTPEVTCVVVDVSHEDPEVKFNWYVDGVEVHNAKTKPREEQYNSTYRVVSVLTVLHQDWLNGKEYKCKVSNKALPAPIEKTISKAKGQPREPQVCTLPPSRDELTKNQVSLWCLVKGFYPSDIAVEWESNGQPENNYKTTPPVLDSDGSFFLYSKLTVDKSRWQQGNVFSCSVMHEALHNRYTQKSLSLSP light: DIVMTQSPLSLPVTPGEPASISCRSSQSLVHSNRNTYLHWYQQKPGQAPRLLIYKVSNRFSGVPDRFSGSGSGTDFTLKISRVEAEDVGVYYCGQGTQVPYTFGQGTKLEIKRTVAAPSVFIFPPSDEQLKSGTASVVCLLNNFYPREAKVQWKVDNALQSGNSQESVTEQDSKDSTYSLSSTLTLSKADYEKHKVYACEVTHQGLSSPVTKSFNRGEC"
4,5.24 nM,"GCH067-G1dh/none-Hi-Kn010G3/L0000-k0 (antibody, human IgG1, kappa, single-arm antibody) heavy: not shown EPKSSDKTHTCPPCPAPELLGGPSVFLFPPKPKDTLMISRTPEVTCVVVDVSHEDPEVKFNWYVDGVEVHNAKTKPREEQYNSTYRVVSVLTVLHQDWLNGKEYKCKVSNKALPAPIEKTISKAKGQPREPQVCTLPPSRDELTKNQVSLWCLVKGFYPSDIAVEWESNGQPENNYKTTPPVLDSDGSFFLYSKLTVDKSRWQQGNVFSCSVMHEALHNRYTQKSLSLSP light: DIVMTQSPLSLPVTPGEPASISCRSSQSLVHSNRNTYLHWYQQKPGQAPRLLIYKVSNRFSGVPDRFSGSGSGTDFTLKISRVEAEDVGVYYCGQGTQVPYTFGQGTKLEIKRTVAAPSVFIFPPSDEQLKSGTASVVCLLNNFYPREAKVQWKVDNALQSGNSQESVTEQDSKDSTYSLSSTLTLSKADYEKHKVYACEVTHQGLSSPVTKSFNRGEC"
5,6.23 nM,"GCH068-G1dh/none-Hi-Kn010G3/L0000-k0 (antibody, human IgG1, kappa, single-arm antibody) heavy: not shown EPKSSDKTHTCPPCPAPELLGGPSVFLFPPKPKDTLMISRTPEVTCVVVDVSHEDPEVKFNWYVDGVEVHNAKTKPREEQYNSTYRVVSVLTVLHQDWLNGKEYKCKVSNKALPAPIEKTISKAKGQPREPQVCTLPPSRDELTKNQVSLWCLVKGFYPSDIAVEWESNGQPENNYKTTPPVLDSDGSFFLYSKLTVDKSRWQQGNVFSCSVMHEALHNRYTQKSLSLSP light: DIVMTQSPLSLPVTPGEPASISCRSSQSLVHSNRNTYLHWYQQKPGQAPRLLIYKVSNRFSGVPDRFSGSGSGTDFTLKISRVEAEDVGVYYCGQGTQVPYTFGQGTKLEIKRTVAAPSVFIFPPSDEQLKSGTASVVCLLNNFYPREAKVQWKVDNALQSGNSQESVTEQDSKDSTYSLSSTLTLSKADYEKHKVYACEVTHQGLSSPVTKSFNRGEC"
6,5.89 nM,"GCH094-G1dh/none-Hi-Kn010G3/L0000-k0 (antibody, human IgG1, kappa, single-arm antibody) heavy: not shown EPKSSDKTHTCPPCPAPELLGGPSVFLFPPKPKDTLMISRTPEVTCVVVDVSHEDPEVKFNWYVDGVEVHNAKTKPREEQYNSTYRVVSVLTVLHQDWLNGKEYKCKVSNKALPAPIEKTISKAKGQPREPQVCTLPPSRDELTKNQVSLWCLVKGFYPSDIAVEWESNGQPENNYKTTPPVLDSDGSFFLYSKLTVDKSRWQQGNVFSCSVMHEALHNRYTQKSLSLSP light: DIVMTQSPLSLPVTPGEPASISCRSSQSLVHSNRNTYLHWYQQKPGQAPRLLIYKVSNRFSGVPDRFSGSGSGTDFTLKISRVEAEDVGVYYCGQGTQVPYTFGQGTKLEIKRTVAAPSVFIFPPSDEQLKSGTASVVCLLNNFYPREAKVQWKVDNALQSGNSQESVTEQDSKDSTYSLSSTLTLSKADYEKHKVYACEVTHQGLSSPVTKSFNRGEC"
7,5.39 nM,"GCH100-G1dh/none-Hi-Kn010G3/L0000-k0 (antibody, human IgG1, kappa, single-arm antibody) heavy: not shown EPKSSDKTHTCPPCPAPELLGGPSVFLFPPKPKDTLMISRTPEVTCVVVDVSHEDPEVKFNWYVDGVEVHNAKTKPREEQYNSTYRVVSVLTVLHQDWLNGKEYKCKVSNKALPAPIEKTISKAKGQPREPQVCTLPPSRDELTKNQVSLWCLVKGFYPSDIAVEWESNGQPENNYKTTPPVLDSDGSFFLYSKLTVDKSRWQQGNVFSCSVMHEALHNRYTQKSLSLSP light: DIVMTQSPLSLPVTPGEPASISCRSSQSLVHSNRNTYLHWYQQKPGQAPRLLIYKVSNRFSGVPDRFSGSGSGTDFTLKISRVEAEDVGVYYCGQGTQVPYTFGQGTKLEIKRTVAAPSVFIFPPSDEQLKSGTASVVCLLNNFYPREAKVQWKVDNALQSGNSQESVTEQDSKDSTYSLSSTLTLSKADYEKHKVYACEVTHQGLSSPVTKSFNRGEC"
